Data reported in patent US11319369B2, “Motor control function improving agent” (Kao Corporation, priority 2016, dated 2022).

T1: GIP(3-42) (Homo sapiens, UniProt P09681)
T1 sequence (P09681 54-93): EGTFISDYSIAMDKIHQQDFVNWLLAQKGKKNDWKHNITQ

T2: GIP(1-42) (Homo sapiens, UniProt P09681)
T2 sequence (P09681 52-93): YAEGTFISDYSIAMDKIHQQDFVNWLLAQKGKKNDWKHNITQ

B1: monoclonal antibody prepared in Production Example 1: Mouse monoclonal anti-active GIP antibody produced by hybridoma 9B9H5-B9 line; H-chain variable region SEQ ID NO: 2, L-chain variable region SEQ … (antibody, listed as Mus musculus, V domains shown)
VH: QVQLQQPGAELVKPGASVKLSCKASGYTFTSFWMHWVIQRPGQGLEWIGEMNPSDGRTHFNEKFKTKATLTIDTSSNTAYMELNSLTSEDSAVYYCARRMEDWGQGTLVTVSA
VL: DIKMTQSPSSMYASLGERVTITCKASQDINSYLGWFQQKPGKSPKTLIYGANRLVDGVPSRFSGSGSGQDYSLTISSLEYDDMGIYYCLQYDEFPLTFGAGTKLELKR

Assays:
[1] = test system: leptin receptor deficient C57BLKS/J male mice (db/db mice); assay: Rotarod (motor control function) test after 28-day administration of GIP or GIP-binding anti-GIP antibody; format: in vivo, mouse; details: intraperitoneal daily for 28 days, GIP 5 nmol/kg, anti-GIP antibody 1 mg/kg, rotarod 6-28 rpm, compared to control group, FIG. 2
Procedure: Six-week-old leptin receptor deficient C57BLKS/J male mice (db/db mice, Oriental Yeast Co., Ltd.) were transferred (room temperature: 23° C., humidity: 55±10%, light period: 7:00 to 19:00) and were fed with food and water ad libitum. The food was CE-2 (CLEA Japan, Inc.), and the mice were acclimated for 2 weeks under the above-mentioned environment and were then used for testing.
Mouse-derived GIP (manufactured by AnaSpec, Inc.) was dissolved in physiological saline at a concentration of 500 nM to give a GIP solution. […]
Physiological saline (control group), the GIP solution (5 nmol/kg body weight). […] After administration for 28 days, the motor control function was measured by a rotarod test.
The motor control function (the accommodation ability reflecting balance ability and agility) was evaluated by measuring the capacity of staying on a rod rotating at various speeds using a rotarod (MK-600A, manufactured by Muromachi Kikai Co., Ltd.). Each mouse was placed on a stationary rod, and the number of times of falling was measured with a program of 6 rpm (1 min)→12 rpm (1 min)→16 rpm (1 min)→20 rpm (1 min)→24 rpm (1 min)→28 rpm (1 min). […]

[2] = molecular target: T1, GIP(3-42); assay: Sandwich ELISA, cross-reactivity with inactive GIP; format: binding; details: biotinylated antibody 1 μg/mL as detection antibody; GIP 8.2 to 2000 pg/mL; FIG. 1
Procedure: (§1) The reactivity between the monoclonal antibody prepared in Production Example 1 and active GIP was confirmed by ELISA. The amino group of the anti-active GIP monoclonal antibody was biotinylated with NH2 group biotinylation kit (manufactured by Dojindo Laboratories). ELISA was performed using the produced biotinylated anti-active GIP monoclonal antibody at 1 μg/mL instead of a detection antibody, GIP detection antibody (biotinylated anti-total GIP monoclonal antibody), included in Human (total) GIP ELISA kit (manufactured by EMD Millipore Corporation). A […] dilution series of GIP(1-42) or GIP(3-42) was prepared in 6 steps (8.2 to 2000 pg/mL) with a 2000 pg/mL solution as the highest concentration. By using an anti-total GIP monoclonal antibody (included in Human GIP (total) ELISA kit manufactured by EMD Millipore Corporation) as a capture antibody, the biotinylated anti-active GIP monoclonal antibody as a detection antibody, and a peroxidase-streptavidin conjugate for detection, sandwich ELISA was conducted to prepare a calibration curve with GIP concentration on the X-axis and 450 nm-590 nm absorbance on the Y-axis (FIG. 1).

[3] = molecular target: T3, PEGylated N-terminus 15 amino acids of active GIP (GIP(1-15)) (Homo sapiens, UniProt P09681); assay: Hybridoma screening ELISA with immobilized antigen (1); format: binding; details: hybridoma culture supernatant
T3 construct: PEGylated N-terminus 15 amino acids of active GIP (GIP(1-15)) was used as an antigen (1) for measurement; made in house; host or cells: synthetic peptide (no expression host)
Procedure: (§2) Polyethylene glycol was added to N-terminus 15 amino acids of active GIP (GIP(1-15)) (PEGylation (polyethylene glycolation)), and keyhole limpet hemocyanin (KLH) was then chemically bonded thereto to produce KLH-linked PEGylated GIP (1-15) as an immunogen.
(§3) The reaction between the hybridoma culture supernatant and the antigen (1) and (2) for measurement was evaluated by ELISA using immobilized antigen (1) and (2), and hybridomas that are positive for the antigen (1) and negative for the antigen (2) were selected as anti-active GIP monoclonal antibody-producing hybridomas.
(§4) Antibody-producing hybridoma was cloned by culturing the hybridomas obtained above through a limiting dilution method to obtain single colonies, and single colony-forming wells were subjected to ELISA again to establish 9B9H5-B9 line, which produces an antibody that is positive for the antigen (1) and negative for the antigen (2) (WO 2016/104439).

[4] = test system: aged C57BL/6J male mice (115-week-old); assay: Rotarod (motor control function) test in aged mice given anti-GIP antibody; format: in vivo, mouse; details: C57BL/6J mice, 0.5 mg/kg intraperitoneal once a week, tested at 115-week-old, FIG. 4
Procedure: Four-week-old C57BL/6J male mice (CLEA Japan, Inc.) were transferred (room temperature: 23° C., humidity: 55±10%, light period: 7:00 to 19:00) and were fed with food (D12450K, Research Diets, Inc.) and water ad libitum for 111 weeks.
The anti-active GIP antibody produced in Production Example 1 was dissolved in physiological saline at a concentration of 0.05 mg/mL to give an anti-GIP antibody solution.
Physiological saline (control group) or the anti-GIP antibody solution (0.5 mg/kg body weight) (anti-GIP antibody administration group) was intraperitoneally administered to C57BL/6J mice (107-week-old) once a week (9:00 to 10:00 a.m.), 8 times (8 weeks) in total.
The motor control function (the accommodation ability reflecting balance ability and agility) was evaluated by measuring the capacity of staying on a rod rotating at various speeds using a rotarod (MK-600A, manufactured by Muromachi Kikai Co., Ltd.). The test was performed for 50-week-old mice (non-administration group) and 115-week-old mice (non-administration group, control group, and anti-GIP antibody administration group). Each mouse was placed on a stationary rod, and the number of times of falling was measured with a program of 6 rpm (1 min)→12 rpm (1 min)→16 rpm (1 min)→20 rpm (1 min)→24 rpm (1 min)→28 rpm (1 min).
The analysis results were shown as the average value (Ave.)±standard error (SE). […]

[5] = molecular target: T4, PEGylated N-terminus 13 amino acids of inactive GIP (GIP(3-15)) (Homo sapiens, UniProt P09681); assay: Hybridoma screening ELISA with immobilized antigen (2); format: binding; details: hybridoma culture supernatant
T4 construct: made in house; host or cells: synthetic peptide (no expression host)
Procedure: as §2, §3, §4

[6] = molecular target: T2, GIP(1-42); assay: Sandwich ELISA, reactivity with active GIP; format: binding; details: biotinylated antibody 1 μg/mL as detection antibody; GIP 8.2 to 2000 pg/mL; FIG. 1
Procedure: as §1

Row | Molecule | decrease in the motor control function (increase in the number of times of falling with an increase of the rotation speed) [1] | cross-reactivity with GIP(3-42) (450 nm-590 nm absorbance) [2] | ELISA reaction with antigen (1) [3] | motor control function (number of times of falling) compared to non-administration and control 115-week-old groups ([4]; 8 times from 107-week-old, rotarod 6-28 rpm) | motor control function relative to the non-administration (50-week-old) group ([4]; 8 times) | ELISA reaction with antigen (2) [5] | reactivity with GIP(1-42) (450 nm-590 nm absorbance) [6]
1 | GIP: Mouse-derived GIP (manufactured by AnaSpec, Inc.), gastric inhibitory polypeptide, dissolved in physiological saline at 500 nM (YAEGTFISDYSIAMDKIRQQDFVNWLLAQRGKKSDWKHNITQ) | significant decrease |  |  |  |  |  | 
2 | B1 |  | does not show cross-reactivity | positive | improvement in the motor control function was observed | equivalent to that of the non-administration (50-week-old) group | negative | capable of specifically detecting GIP(1-42)
